The results in this text go back to publication PMC4838380 (Nucleic Acids Research, 2016).

The series concerns the molecule itself. The series can be described thus: SEC. Background: Size exclusion chromatography separates by hydrodynamic size, large species first.

B1: Endonuclease MS from Thermococcus kodakarensis (TkoEndoMS), protein encoded by TK1898 (enzyme, UniProt Q5JER9 1-252, looked up)
chain: MSKDKVTVITSPSTEELVSLVNSALLEEAMLTIFARCKVHYDGRAKSELGSGDRVIIVKPDGSFLIHQSKKREPVNWQPPGSRVRLELRENPVLVSIRRKPRETLEVELEEVYMVSVFRAEDYEELALTGSEAEMAELIFENPEVIEPGFKPLFREKAIGTGIVDVLGRDSDGNIVVLELKRRRAELHAVRQLKSYVEILREEYGDKVRGILVAPSLTSGAKRLLEKEGLEFRKLEPPKRDSKKKGRQKTLF
Turning to B1, the stoichiometry N (in general, a count of units in the complex or per binding partner) turned out to be 2.
